Results: the DeepSol protein solubility set

Assay: soluble on expression in E. coli; label from the status in PepcDB or PDB records

Which “soluble on expression in E. coli” value does the source give for “SNAMTKKKVYIVSHSHWDREWYLPYEEHHMRLIELVDNVLDLIENDPEFNSFHLDGQTIILDDYLQVRPEKKEAVKKAVQAGKLKIGPFYILQDDFLISSESNVRNMLIGHLESQKWGAPVQLGYFPDTFGNMGQTPQMMQLANLPAAAFGRGVKPIGFDNQVLESDYSSQYSEMWWEGPDQTKIFGLLFANWYSNGNEIPSEKEAAIAFWKQKLADVERYASTNHLLMMNGVDHQPVQRDITKAIALANELFPEYEFIHSNFDDYLKAVQEELPEDLGTVTGELTSQETDGWYTLANTSSARVYLKQWNTKVQRQLENIAEPLAAMAYEVTGDYPHDQFDYAWKTLLQNHPHDSICGCSVDEVHRGMMTRFENANDVGHFLADEATRQLTEAIDTSVFPEKAHPFVLFNTSGYQKTEVVTVEVEIERLPFYTGKPEDLYHELKQKATPDYQVIDPTGKAVASRIVKEDVRFGYDLPKDAFRQPYMAKYLTVELSVKEMAPFSWDSFALIQGETKAFEGSLLAQPATNEMENEFIQVKIENNGSLTIADKKTGETFSKLLTFEDTGDIGNEYIFFKPTEDQGITTENVTAEITNKENSPVKASYQIKQTVMLPVAADERLEEEQKAVREFRERLAQRSTTLRPFEITTMVTMIKESNQLFFETTINNQIKDHRLRVLFPTGMVTETHEADSIYEVVTRPNQVSDTWENPTNPQHQQAFVNVHDQNKGVTIFNEGLNEYEVLADGTIAVTLIRCVGELGDWGYFATPEAQCQGEYTFKYGLSLHGKPEERFATYQQAYSAQIPFTAATTARHEGKLAPNHVYLTTAEGPIGWTAVKRQEQTNHLVVRGFNLTAQNIPCELHKETQPATCLTNVLEEPLTPAIEVDAPLRPFEIRTWRFEK” here?
Its value is “soluble”.

Which “soluble on expression in E. coli” value does the source give for “MCLNRVNEWVLEFNSRTKKLLIDLNKRLPGAKFSFADTYPAVLDLINNPTHYGFKIANTSCCNVDTSVGGLCLPNSKMCKNRQDFVFWDAFHPSDSANQILADHLFSSLLSSSSPSPAPKPRQ” here?
The value was “not soluble”.

For “MAHHHHHHMAIPPHGFIEAIHASPLRCVLYVMGAGSSAIAQLTSVAGCSRTLLDARVPYAMAAALQMLDDQPPKMVSATVARQMAQHAHHRAVEYSNGDDDGTLVGIGSTSAVQTNRIRHGKDSAFVAAWSQRQVVEFAMELPGHLARAEQEEQVTLLLFKALAECAKVPFEISFVVEPKRISYIVPDSPLRRLLQGEMKFLVFNTYGELRANFVPYVAETSFAVKPENSWKALLFPGSFRPLHWGHTELARAAVRAMATMKGTLNSTSTDTSSPSWNVPDASNVQVTYEIAVDNADKGIIDSDVELKKRVQQFLQRGARVAVTRARLFTEKALLFPGHGFIVGIDTMKRILDPKYYDNSREAMLRAMEFIREQGGYFVVAGRASGGKDAVWEDLTSIEVPAEVESMLISIRKEDFCVDVSSTMLRERNKSTC”, which “soluble on expression in E. coli” value is on record?
The value was “not soluble”.

Which “soluble on expression in E. coli” value does the source give for “MKILRFNEGRWGVLEGELVLETDGPGGNPTGRRYDLASVTLLPPATPTKIVCVGRNYREHIREMGHDFGEDLPKEPGLFLKGPNALARPGNPRDPWGTAEPVPYPFFTEELHYEGELAVVVGDRMRHVPPEKALDHVLGYTVAVDITARDVQKKDLQWVRAKSADKFLPLGPWLETDLNPQDTWVRTYVNGTLRQEGHTSQMIFSVAEILSYISTFMTLEPLDVVLTGTPEGVGALRPGDRLEVAVEGVGTLFTLIGPKEERPW” here?
The value was “soluble”.

With “MSLKARTKIEKQVAASNEKLTAISPKVMTWAVRKVAGHVCFRTSAHKCTCGECGRQFDYEGKGKSVCCPYCGTRLQIKDTLKRTIKEAYYFSSLEVIDHLQVQRVFRLETTFRKGLPMEVDYWEACRLWLNAEGKSAVTARARTLSYYVDCFDWASEITLKRPNEVHWLIADTYVYPHYRLLPELKRNGMKGKLPDCYPMKLMKAVLTDSRMETILKSKDLHAVSYFVNRPLELDRCWQSYKVATRHHYRPSDMGLWADTIRLLEQCGKDICSPRYICPQNLKAEHDYWMNRHNQMEQKRRSQEQIQRAKRKEAEFYKEKSRYFGITITDKDLVISVLDTLEAFQAEGNALHHCVFQCEYYAKADSLILSAHDKEGNRIETIEFSLTEGKVIQSRGLCNTNTPHHDRIVRLVNAHAHQILAAKQTAEGHHHHHH” as the sequence, how does the “soluble on expression in E. coli” value read?
The value was “not soluble”.

Which “soluble on expression in E. coli” value does the source give for “MGSDKIHHHHHHMIIMIPFKSMRDQAGLNRQHIFDLARLPPDLLAPLDLGQHERQLILLGHAGRLLWERVQKHATDPVHPIDSYTIGVVEQWAALALPHTRIRFVYPRGLPANRHVGLQRLGTLAGWHHPSPFMVGIDARWGSWFAYRAAIIVDSELPASPVEDHGHPCVDCTAKPCIGTCPASALDSGTMDMNACTASGSLKPRPARTAAWRDRPAL” here?
The value was “not soluble”.

With “MLLGEGAFGQVFKGILRGPNGQVIPVAVKQLKANAIDEEREEFVREIQMMQTVGQHDNIVTMYGYCMDEQLQCMIMEYVPYGDLKHYLQNMRKEKDSDSAIDSKEFLSFTNQIACGMAHLESVGIIHRDLAARNILVGTGKVLKISDFGMSRPGVYIKMSKGVIPLRWLSPEAIKDNTYSNKSDVWAFGVLLWEIATLGGFPYNNVADKDILNQLTEGMRLEQPAKCSDDMYILMKSCWNLKAEDRPSFLAILSKIEQIANVDADAPPSDPPAKDV” as the sequence, how does the “soluble on expression in E. coli” value read?
The value was “not soluble”.

For “METIKALEKFMEFDRLQKDCSDKLDRERERRMKAEREIARKNCGGNPCERELKSERSNVKRLEYQLDAEKEKVKFYKRELERDRYLSSRYLTSSSDPHEKPLPNYTFPRIKNVSPLTTEATGSVEVAPPSTDVTEPISDVTPSVDVEPEHPPAF”, which “soluble on expression in E. coli” value is on record?
The value was “not soluble”.

With “MGHHHHHHSHMDDPLLVELQAEDYWYEAYNMRTGARGVFPAYYAIEVTKEPEHMAALAKNSDWVDQFRVKFLGSVQVPYHKGNDVLCAAMQKIATTRRLTVHFNPPSSCVLEISVRGVKIGVKADDSQEAKGNKCSHFFQLKNISFCGYHPKNNKYFGFITKHPADHRFACHVFVSEDSTKALAESVGRAFQQFYKQFVEYTCPT” as the sequence, how does the “soluble on expression in E. coli” value read?
The value was “soluble”.

Which “soluble on expression in E. coli” value does the source give for “MFERVREDIQSVFHRDPAARNALEVLTCYPGLHAVWLHRLAHGLWTSGWKWLARLVSNFGRWMTGIEIHPGARIGRRFFIDHGMGIVIGETAEIGDDVTLYQGVTLGGTTWNKGKRHPTLGNNVVVGAGAKVLGPFTVGEGAKVGSNAVVTKEVPPGATVVGIPGRIIMREDSEQQAKRQAMAEKLGFDAYGVSQDMPDPVARAIGQLLDHLQAVDGRLEGMCQALTALGSDYCAKDLPVLREEDFAGVKDEDGNPAALEHHHHHH” here?
Its value is “soluble”.

For “MGSDKIHHHHHHMTARLESNAPVQYAFRLDDREVAVNPLIGRPLRLEYLGSIFCTHCGRKTKKSFSQGYCYPCFTRLAQCDSCIVSPEKCHYEQGTCREPEWGERFCMTDHVVYLANSSGVKVGITRASQIPTRWIDQGARQALPILRVATRQQSGLVEDLLRSQVADRTNWRAMLKGEAEPVDLAAVREQLFDQCADGLRELQQRFGLQAIQPVIDLDPLEIAYPVEAYPSKVASLDLEKTPIVEGTLRGIKGQYLILDTGVINIRKYTAYQIAVHH”, which “soluble on expression in E. coli” value is on record?
Its value is “not soluble”.

Which “soluble on expression in E. coli” value does the source give for “GNFYAVRKGRETGIYNTWNECKNQVDGYGGAIYKKFNSYEQAKSFLG” here?
Its value is “soluble”.

With “MSLRKFSLIMATYGRKDEVGCFLESLMNSNYPMDKVEVIIVDQNKEIDLEPIISKYKEKIKVVHIKSNERGLALNRNKGLEIATGDIIAFPDDDCEYLVDTLNIVNNYFENEHCDLLMGRIVERNGEDSLREWPKEKIEINKNNFYTKCSSVTMFLDSKKCFVKFNDQLGAGKYFGACEDADLIYKNCKKGLKIIYNPELQIYHPHYDSNSNMDDKKIYSYGLGFGAMVKSNFDFSMLILFIKAEGYHFLKSLIYLITFKTTKSKRSWLAFKSRIKGFFEYKNEGHHHHHH” as the sequence, how does the “soluble on expression in E. coli” value read?
The value was “soluble”.

With “AQIDLNITCRFAGVFHVEKNGRYSISRTEAADLCKAFNSTLPTMAQMEKALSIGFETCRYGFIEGHVVIPRIHPNSICAANNTGVYILTSNTSQYDTYCFNASAPPEEDCTSVTDLPNAFDGPITITIVNRDGTRYVQKGEYRTNPEDIYPSNPTDDDV” as the sequence, how does the “soluble on expression in E. coli” value read?
The value was “soluble”.

Which “soluble on expression in E. coli” value does the source give for “MPYLNCDTITGDFHFQMIRFARAMEVGDKLTMKGKIMNPANMSYLHLYQGFNSVYEKSPLSLHIRVQYLRNSIIYNSWFGSWGGEQFSQQPFLSGNYYSISVLKGPTYYSIYMGNLLITKYAFRNPANWQIGNLLGYGDWTVTSVSMTCVRPGVPTTPDPKATTTPTPTTTKAQNIIAEDPNGGQLGGGELVVTNPGSVGSGSGNSGNSSNNNNSSGNSNYGSNNSGSGNGNSNSGNGNSGNGNGNNAGNSGNGNGNSNGNNGNGSNGNGNGNNGNGNNGNNGNGHPQYPYPVPPHGYYPPGYPYPPGYPYPPPGAFYYPPGGIPQNGMNGQNGNGQPNIIVINSGGNKKRNRGGNLRPQFDVDLDGDEDEEC” here?
Its value is “not soluble”.
